Experimental data: patent US9260500B2, “Peptide and use thereof” (Takeda Pharmaceutical Company Limited, priority 2009, dated 2016)
Non-standard residues stand in square brackets, D forms with d. No end group written: not given here. *: point of attachment. 4‑Guanidinomethylbenzoyl = N=C(N)NCc1ccc(C(=O)*)cc1; β‑HOAla = beta-homoalanine, D or L form; 1Nal = N[C@@H](Cc1cccc2ccccc12)C(=O)O; Arg(Me) = CNC(=N)NCCC[C@H](N)C(=O)O; hArg = N=C(N)NCCCC[C@H](N)C(=O)O; 4Pal = N[C@@H](Cc1ccncc1)C(=O)O; d(pGlu) = O=C1CC[C@H](C(=O)O)N1; Cha = N[C@@H](CC1CCCCC1)C(=O)O; Cit = NC(=O)NCCC[C@H](N)C(=O)O; Gly(cPr) = N[C@H](C(=O)O)C1CC1; dPip = O=C(O)[C@H]1CCCCN1; Isobutyryl = CC(C)C(=O)*; Iva = CC[C@](C)(N)C(=O)O; NMeA = CN[C@@H](C)C(=O)O; Dab = NCC[C@H](N)C(=O)O; Abu = CC[C@H](N)C(=O)O; Nleu = CC(C)CNCC(=O)O; Aib = CC(C)(N)C(=O)O; Bz = O=C(c1ccccc1)*

What was measured:
[1] = molecular target: T1, human Y2 receptor (Homo sapiens, UniProt P49146); experiment: Human Y2 Receptor G Protein Binding Assay (GBA), [35S]GTPγS; assay type: biochemical; conditions: EC50 of test compound/EC50 of PYY(3-36) (PYY3-36 taken as 1), hY2R/CHO membrane fraction
T1 construct: expressed in transfected cells; membrane fraction
T1 sequence (P49146 1-381): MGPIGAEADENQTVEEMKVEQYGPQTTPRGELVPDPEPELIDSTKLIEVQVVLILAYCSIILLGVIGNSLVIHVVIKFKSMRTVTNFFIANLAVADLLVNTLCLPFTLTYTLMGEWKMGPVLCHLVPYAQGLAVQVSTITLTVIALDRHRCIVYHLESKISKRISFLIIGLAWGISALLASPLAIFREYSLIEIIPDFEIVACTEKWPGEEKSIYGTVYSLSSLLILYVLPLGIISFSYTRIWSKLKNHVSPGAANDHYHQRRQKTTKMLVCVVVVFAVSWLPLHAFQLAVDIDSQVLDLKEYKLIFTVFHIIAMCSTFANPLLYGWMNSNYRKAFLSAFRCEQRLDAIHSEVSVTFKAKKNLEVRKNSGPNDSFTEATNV
Procedure, shortened: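 Agonism measured as [35S]GTPγS binding, read by GF/C filtration and scintillation counting after 120 min at room temperature, using human Y2 membranes at 1 μg protein/mL in pH 7.4 Tris/MgCl2/NaCl/GDP buffer. Compound serially diluted 100 μM–1 nM; EC50 normalized to PYY(3-36) (ratio = compound/PYY).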

[2] = molecular target: T1, human Y2 receptor; experiment: Receptor Binding Assay (RBA) for Human Y2, [125I]-PYY displacement on hY2R/CHO membrane fraction; conditions: IC50 of test compound/IC50 of PYY(3-36) (PYY(3-36) taken as 1)
Procedure, shortened: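 hY2R stably expressed in CHO/dhfr− cells; membrane fraction prepared from cells disrupted in 10 mM NaHCO3, 5 mM EDTA buffer with protease inhibitors. Binding read as displacement of [125I]-PYY.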

| Substance | GBA EC50 Ratio [1] | RBA IC50 Ratio [2] |
| --- | --- | --- |
| Isobutanoyl-[Abu26, Cha27,28,36, Gly(cPr)31]-PYY(25-36) (Isobutyryl-R[Abu][Cha][Cha]NL[Gly(cPr)]TRQR[Cha]-NH2; SMILES CC[C@H](NC(=O)[C@H](CCCNC(=N)N)NC(=O)C(C)C)C(=O)N[C@@H](CC1CCCCC1)C(=O)N[C@@H](CC1CCCCC1)C(=O)N[C@@H](CC(N)=O)C(=O)N[C@@H](CC(C)C)C(=O)N[C@H](C(=O)N[C@H](C(=O)N[C@@H](CCCNC(=N)N)C(=O)N[C@@H](CCC(N)=O)C(=O)N[C@@H](CCCNC(=N)N)C(=O)N[C@@H](CC1CCCCC1)C(N)=O)[C@@H](C)O)C1CC1) [compound No. 88] | 16 | 25 |
| 4-Guanidinomethylbenzoyl-[Iva25, Cha27,36, Aib28,31, Lys30]-PYY(25-36) ({4‑Guanidinomethylbenzoyl}-[Iva]H[Cha][Aib]NK[Aib]TRQR[Cha]-NH2; SMILES CC[C@](C)(NC(=O)c1ccc(CNC(=N)N)cc1)C(=O)N[C@@H](Cc1c[nH]cn1)C(=O)N[C@@H](CC1CCCCC1)C(=O)NC(C)(C)C(=O)N[C@@H](CC(N)=O)C(=O)N[C@@H](CCCCN)C(=O)NC(C)(C)C(=O)N[C@H](C(=O)N[C@@H](CCCNC(=N)N)C(=O)N[C@@H](CCC(N)=O)C(=O)N[C@@H](CCCNC(=N)N)C(=O)N[C@@H](CC1CCCCC1)C(N)=O)[C@@H](C)O) [compound No. 252] | 2.8 | 6.3 |
| Ac-[D-Pro24, Arg(Me)25, Cha27,36, Aib28,31, Lys30]-PYY(23-36) (Ac-S[dP][Arg(Me)]H[Cha][Aib]NK[Aib]TRQR[Cha]-NH2; SMILES CNC(=N)NCCC[C@H](NC(=O)[C@H]1CCCN1C(=O)[C@H](CO)NC(C)=O)C(=O)N[C@@H](Cc1c[nH]cn1)C(=O)N[C@@H](CC1CCCCC1)C(=O)NC(C)(C)C(=O)N[C@@H](CC(N)=O)C(=O)N[C@@H](CCCCN)C(=O)NC(C)(C)C(=O)N[C@H](C(=O)N[C@@H](CCCNC(=N)N)C(=O)N[C@@H](CCC(N)=O)C(=O)N[C@@H](CCCNC(=N)N)C(=O)N[C@@H](CC1CCCCC1)C(N)=O)[C@@H](C)O) [compound No. 281] | 1.8 | 1.8 |
| Ac-[D-Pro24, Pya(4)26, Cha27,36, Aib28,31, Har30]-PYY(23-36) (Ac-S[dP]R[4Pal][Cha][Aib]N[hArg][Aib]TRQR[Cha]-NH2; SMILES CC(=O)N[C@@H](CO)C(=O)N1CCC[C@@H]1C(=O)N[C@@H](CCCNC(=N)N)C(=O)N[C@@H](Cc1ccncc1)C(=O)N[C@@H](CC1CCCCC1)C(=O)NC(C)(C)C(=O)N[C@@H](CC(N)=O)C(=O)N[C@@H](CCCCNC(=N)N)C(=O)NC(C)(C)C(=O)N[C@H](C(=O)N[C@@H](CCCNC(=N)N)C(=O)N[C@@H](CCC(N)=O)C(=O)N[C@@H](CCCNC(=N)N)C(=O)N[C@@H](CC1CCCCC1)C(N)=O)[C@@H](C)O) [compound No. 277] | 0.79 | 0.36 |
| Ac-[D-Pro24, Cit25, Cha27,36, Aib28,31, Lys30]-PYY(23-36) (Ac-S[dP][Cit]H[Cha][Aib]NK[Aib]TRQR[Cha]-NH2; SMILES CC(=O)N[C@@H](CO)C(=O)N1CCC[C@@H]1C(=O)N[C@@H](CCCNC(N)=O)C(=O)N[C@@H](Cc1c[nH]cn1)C(=O)N[C@@H](CC1CCCCC1)C(=O)NC(C)(C)C(=O)N[C@@H](CC(N)=O)C(=O)N[C@@H](CCCCN)C(=O)NC(C)(C)C(=O)N[C@H](C(=O)N[C@@H](CCCNC(=N)N)C(=O)N[C@@H](CCC(N)=O)C(=O)N[C@@H](CCCNC(=N)N)C(=O)N[C@@H](CC1CCCCC1)C(N)=O)[C@@H](C)O) [compound No. 226] | 4.6 | 6.2 |
| Benzoyl-[Cha27,36, Ile28, Arg(Me)31]-PYY(25-36) (Bz-RH[Cha]INL[Arg(Me)]TRQR[Cha]-NH2) [compound No. 70] | 15 | 18 |
| Ac-[D-Pic(2)24, Cha27,28,36, Aib31]-PYY(23-36) (Ac-S[dPip]RH[Cha][Cha]NL[Aib]TRQR[Cha]-NH2; SMILES CC(=O)N[C@@H](CO)C(=O)N1CCCC[C@@H]1C(=O)N[C@@H](CCCNC(=N)N)C(=O)N[C@@H](Cc1c[nH]cn1)C(=O)N[C@@H](CC1CCCCC1)C(=O)N[C@@H](CC1CCCCC1)C(=O)N[C@@H](CC(N)=O)C(=O)N[C@@H](CC(C)C)C(=O)NC(C)(C)C(=O)N[C@H](C(=O)N[C@@H](CCCNC(=N)N)C(=O)N[C@@H](CCC(N)=O)C(=O)N[C@@H](CCCNC(=N)N)C(=O)N[C@@H](CC1CCCCC1)C(N)=O)[C@@H](C)O) [compound No. 119] | 5.8 | 9.9 |
| Ac-[D-Pro24, Cha27,28,36, Dab30, Aib31]-PYY(23-36) (Ac-S[dP]RH[Cha][Cha]N[Dab][Aib]TRQR[Cha]-NH2; SMILES CC(=O)N[C@@H](CO)C(=O)N1CCC[C@@H]1C(=O)N[C@@H](CCCNC(=N)N)C(=O)N[C@@H](Cc1c[nH]cn1)C(=O)N[C@@H](CC1CCCCC1)C(=O)N[C@@H](CC1CCCCC1)C(=O)N[C@@H](CC(N)=O)C(=O)N[C@@H](CCN)C(=O)NC(C)(C)C(=O)N[C@H](C(=O)N[C@@H](CCCNC(=N)N)C(=O)N[C@@H](CCC(N)=O)C(=O)N[C@@H](CCCNC(=N)N)C(=O)N[C@@H](CC1CCCCC1)C(N)=O)[C@@H](C)O) [compound No. 165] | 1.6 | 2.6 |

Next, values leading:

| GBA EC50 Ratio [1] | RBA IC50 Ratio [2] | Substance |
| --- | --- | --- |
| 1.1 | 2 | [D-pGlu24, Pya(4)26, Cha27,36, Aib28,31, Lys30]-PYY(24-36) ([d(pGlu)]R[4Pal][Cha][Aib]NK[Aib]TRQR[Cha]-NH2; SMILES C[C@@H](O)[C@H](NC(=O)C(C)(C)NC(=O)[C@H](CCCCN)NC(=O)[C@H](CC(N)=O)NC(=O)C(C)(C)NC(=O)[C@H](CC1CCCCC1)NC(=O)[C@H](Cc1ccncc1)NC(=O)[C@H](CCCNC(=N)N)NC(=O)[C@H]1CCC(=O)N1)C(=O)N[C@@H](CCCNC(=N)N)C(=O)N[C@@H](CCC(N)=O)C(=O)N[C@@H](CCCNC(=N)N)C(=O)N[C@@H](CC1CCCCC1)C(N)=O) [compound No. 250] |
| 1.9 | 0.85 | Ac-[β-HOAla24, Pya(4)26, Cha27,36, Aib28,31, Lys30]-PYY(23-36) [compound No. 245] (Ac-S[β‑HOAla]R[4Pal][Cha][Aib]NK[Aib]TRQR[Cha]-NH2; also: β-HOAla at position 2: D or L form not settled) |
| 2.4 | 3.3 | Piperidinocarbonyl-[Glu23, D-Pro24, Pya(4)26, Cha27,36, Aib28,31, Lys30]-PYY(23-36) (piperidinocarbonyl-E[dP]R[4Pal][Cha][Aib]NK[Aib]TRQR[Cha]-NH2) [compound No. 193] |
| 2.4 | 5.8 | [N(iBu)Gly23, D-Pro24, Cha27,28,36, Aib31]-PYY(23-36) ([Nleu][dP]RH[Cha][Cha]NL[Aib]TRQR[Cha]-NH2; N-terminus assumed; SMILES CC(C)CNCC(=O)N1CCC[C@@H]1C(=O)N[C@@H](CCCNC(=N)N)C(=O)N[C@@H](Cc1c[nH]cn1)C(=O)N[C@@H](CC1CCCCC1)C(=O)N[C@@H](CC1CCCCC1)C(=O)N[C@@H](CC(N)=O)C(=O)N[C@@H](CC(C)C)C(=O)NC(C)(C)C(=O)N[C@H](C(=O)N[C@@H](CCCNC(=N)N)C(=O)N[C@@H](CCC(N)=O)C(=O)N[C@@H](CCCNC(=N)N)C(=O)N[C@@H](CC1CCCCC1)C(N)=O)[C@@H](C)O) [compound No. 133] |
| 0.72 | 0.6 | [MeAla22, D-Pro24, Cha27,28,36, Aib31]-PYY(22-36) ([NMeA]S[dP]RH[Cha][Cha]NL[Aib]TRQR[Cha]-NH2; N-terminus assumed; SMILES CN[C@@H](C)C(=O)N[C@@H](CO)C(=O)N1CCC[C@@H]1C(=O)N[C@@H](CCCNC(=N)N)C(=O)N[C@@H](Cc1c[nH]cn1)C(=O)N[C@@H](CC1CCCCC1)C(=O)N[C@@H](CC1CCCCC1)C(=O)N[C@@H](CC(N)=O)C(=O)N[C@@H](CC(C)C)C(=O)NC(C)(C)C(=O)N[C@H](C(=O)N[C@@H](CCCNC(=N)N)C(=O)N[C@@H](CCC(N)=O)C(=O)N[C@@H](CCCNC(=N)N)C(=O)N[C@@H](CC1CCCCC1)C(N)=O)[C@@H](C)O) [compound No. 123] |
| 1.7 | 2.9 | Ac-[D-Pro24, Pya(4)26, Nal(1)27, Aib28,31, Lys30, Cha36]-PYY(23-36) (Ac-S[dP]R[4Pal][1Nal][Aib]NK[Aib]TRQR[Cha]-NH2; SMILES CC(=O)N[C@@H](CO)C(=O)N1CCC[C@@H]1C(=O)N[C@@H](CCCNC(=N)N)C(=O)N[C@@H](Cc1ccncc1)C(=O)N[C@@H](Cc1cccc2ccccc12)C(=O)NC(C)(C)C(=O)N[C@@H](CC(N)=O)C(=O)N[C@@H](CCCCN)C(=O)NC(C)(C)C(=O)N[C@H](C(=O)N[C@@H](CCCNC(=N)N)C(=O)N[C@@H](CCC(N)=O)C(=O)N[C@@H](CCCNC(=N)N)C(=O)N[C@@H](CC1CCCCC1)C(N)=O)[C@@H](C)O) [compound No. 306] |
